Test results reported in paper doi:10.1101/2025.09.11.675134, “Biodistribution-Driven Discovery Identifies a Glycosidase-Cleavable Linker to Reprogram Radiotheranostics” (bioRxiv, 2025).
Like-named read-outs stand apart in the source and are kept apart here. Positions of bridges follow the written chain, without caps; N, C: chain ends. Non-standard residues stand in square brackets, D forms with d. Residues, ends and D or L forms follow the SMILES beside them. *: point of attachment. X1 = C[C@H](CCC(=O)*)[C@H]1CC[C@H]2[C@@H]3[C@H](O)C[C@@H]4C[C@@H](NC(=O)CNC(=O)CN5CCN(CC(=O)O)CCN(CC(=O)O)CCN(CC(=O)O)CC5)CC[C@]4(C)[C@H]3C[C@H](O)[C@]12C; DOTA = O=C(O)CN1CCN(CC(=O)O)CCN(CC(=O)*)CCN(CC(=O)O)CC1

Assay: Ex vivo biodistribution screen of 111In-labeled DOTA-TATE derivatives in normal mice
Parameters: species or system athymic nude mice
Conditions: 2 h post-injection; for tissue uptake at 2 h: athymic nude, mouse, iv, 1 ug per mouse, total radioactivity; for Relative kidney retention, % rel. to DOTA-TATE: normal mice, 111In-DOTA-TATE set as 100%
Experimental: The panel of 10 compounds were then tested in an initial biodistribution screen of 9 organs assessed in non-tumor-bearing mice at specific timepoints following administration of the radioconjugates. Each agent was initially labeled with ^111In, a long-lived gamma-emitting radioisotope suitable for biodistribution studies, with high radiochemical yields and purity (Fig. S12). The compounds were then dosed (1.55 ± 0.12 MBq; 1 μg per mouse) in healthy athymic nude mice via intravenous (i.v.) injection in phosphate-buffered saline (PBS; vehicle). After 2 hours, the mice were sacrificed and ex vivo biodistribution analysis was performed (Fig. 2). […] This was an expected finding because this variant was designed to bind serum albumin.
Radiolabeling and In Vivo Evaluation of DOTA-TATE Variants:
Biodistribution, PET Quantification, and Dosimetry
Radiolabeling: To perform the initial biodistribution screen, radiolabeling of 10 compounds, including DOTA-TATE, was carried out using 111In (Cardinal Health, Arbutus, MD, USA), an affordable and readily available gamma -emitting radioisotope with a moderate half -life (2.83 days), which affords efficient DOTA radiolabeling and facilitates handling. 111InCl3 (28 – 36 MBq) was diluted with 0.4 M NH 4OAc buffer (pH 5.2) and combined with DOTA -TATE variants (20 μg). The solution was mixed well and then incubated at 90 °C for 30 min.
Radiolabeling efficiency and radiochemical purity were determined by radio -TLC and radio - HPLC. Radiochemical yield was >95% and the material was used without further purification.
The specific activity was 1.55 ± 0.12 TBq/g (41.9 ± 3.2 Ci/g). […]
Radio-instant thin-layer chromatography (radio-iTLC) was performed using silicic acid-impregnated glass microfiber paper strips (iTLC-SA, Varian, Lake Forest, CA, USA) as the stationary phase, and 50 mM EDTA in 100 mM NH4OAc (pH 5.5) as the mobile phase, analyzed with a radio-TLC scanner (AR-2000, Eckert-Ziegler, Wilmington, MA, USA). For Ac-225, equilibration was allowed for at least 12 hours before scanning the TLC strips to confirm initial scans. Radio-HPLC analysis (Agilent 1260 Infinity II, Agilent Technologies Inc., Santa Clara, CA, USA) was conducted on a TSK- Octadecyl-4PW column (5 µm, 4.6 mm ID × 15 cm, Tosoh
Co. Tokyo, Japan) with gradient elution using 0.1% trifluoroacetic acid in water as mobile phase A and 0.1% trifluoroacetic acid in acetonitrile as Mobile phase B. The elution sequence was 0-5 […]
PET imaging and biodistribution: For initial biodistribution screen studies, normal mice were administered 1.4 – 1.8 MBq (1 μg) of 111In-DOTA-TATE variants via tail vein injection and biodistribution studies were conducted at 2 hours post -injection (n = 2 – 4 per cohort).
For studies involving three variants (DOTA -TATE, DOTA-MVK(ε)-TATE, and DOTA-β-Gal-TATE), AR42J cells (5 × 10^6 cells per mouse) were subcutaneously inoculated into the right shoulder of the mice. Tumors were allowed to grow for 3 weeks, reaching a volume of 100 –200 mm³ before being used in subsequent experiments. For biodistribution or PET imaging studies, mice bearing subcutaneous AR42J tumors were administered 1.4 – 1.8 MBq (1 μg) of 111In-labeled DOTA-TATE variants or 2.7 – 4.9 MBq (1 μg) of 86Y-labeled DOTA-TATE variants via tail vein injection. Biodistribution studies with 111In-labeled DOTA -TATE variants were performed 1 hour post -injection (n = 3 per cohort), while studies with 86Y-labeled DOTA-TATE variants were conducted at 1, 4, and 24 hours post -injection (n = 3 per cohort). Mice were euthanized by CO2 asphyxiation, and 10 tissues, including tumors, were collected. All samples were weighed and counted on a gamma counter (2480 Wizard 3, Perkin Elmer Inc., Waltham, MA, USA). Results are presented as percentage of injected activity per gram (%IA/g) and mean values ± standard deviations.
PET imaging to assess the uptake of three 86Y-labeled DOTA-TATE variants (2.7 – 4.9 MBq, 1 […]

[1] = blood, normal athymic nude mice, i.v. 1 μg (1.4–1.8 MBq), ex vivo gamma counting, mean, n = 2–4, read-out: Blood uptake
[2] = kidney, normal athymic nude mice, i.v. 1 μg, ex vivo, mean (± SD), n = 2–4, read-out: Kidney uptake
[3] = femur, normal athymic nude mice, i.v. 1 μg, ex vivo, mean, n = 2–4, read-out: Femur uptake
[4] = heart, normal athymic nude mice, i.v. 1 μg, ex vivo, mean, n = 2–4, read-out: Heart uptake
[5] = intestine, normal athymic nude mice, i.v. 1 μg, ex vivo, mean, n = 2–4, read-out: Intestine uptake
[6] = liver, normal athymic nude mice, i.v. 1 μg, ex vivo, mean, n = 2–4, read-out: Liver uptake
[7] = lung, normal athymic nude mice, i.v. 1 μg, ex vivo, mean, n = 2–4, read-out: Lung uptake
[8] = muscle, normal athymic nude mice, i.v. 1 μg, ex vivo, mean, n = 2–4, read-out: Muscle uptake
[9] = spleen, normal athymic nude mice, i.v. 1 μg, ex vivo, mean, n = 2–4, read-out: Spleen uptake

Structure (SMILES) | tissue uptake at 2 h [1] [%ID/g] | tissue uptake at 2 h [2] [%ID/g] | tissue uptake at 2 h [3] [%ID/g] | tissue uptake at 2 h [4] [%ID/g] | tissue uptake at 2 h [5] [%ID/g] | tissue uptake at 2 h [6] [%ID/g] | tissue uptake at 2 h [7] [%ID/g] | tissue uptake at 2 h [8] [%ID/g] | tissue uptake at 2 h [9] [%ID/g] | Relative kidney retention, % rel. to DOTA-TATE [%] | other results
C[C@H](CCC(=O)NCC(=O)N[C@H](Cc1ccccc1)C(=O)N[C@H]1CSSC[C@@H](C(=O)N[C@H](C(=O)O)[C@@H](C)O)NC(=O)[C@H]([C@@H](C)O)NC(=O)[C@H](CCCCN)NC(=O)[C@@H](Cc2c[nH]c3ccccc23)NC(=O)[C@H](Cc2ccc(O)cc2)NC1=O)[C@H]1CC[C@H]2[C@@H]3[C@H](O)C[C@@H]4C[C@@H](NC(=O)CNC(=O)CN5CCN(CC(=O)O)CCN(CC(=O)O)CCN(CC(=O)O)CC5)CC[C@]4(C)[C@H]3C[C@H](O)[C@]12C [DOTA-G-Chol-G-TATE] (X1-G[dF]CY[dW]KTCT-OH; disulfide 3-8) | 1.7 | 9.6 |  |  |  |  |  |  |  |  | 
C[C@@H](O)[C@H](NC(=O)[C@@H]1CSSC[C@H](NC(=O)[C@@H](Cc2ccccc2)NC(=O)CNC(=O)[C@H](CC(=O)O)NC(=O)[C@H](CC(=O)O)NC(=O)[C@H](CC(=O)O)NC(=O)CNC(=O)CN2CCN(CC(=O)O)CCN(CC(=O)O)CCN(CC(=O)O)CC2)C(=O)N[C@@H](Cc2ccc(O)cc2)C(=O)N[C@H](Cc2c[nH]c3ccccc23)C(=O)N[C@@H](CCCCN)C(=O)N[C@@H]([C@@H](C)O)C(=O)N1)C(=O)O [DOTA-GDDDG-TATE] ({DOTA}-GDDDG[dF]CY[dW]KTCT-OH; disulfide 7-12) |  | 13 |  |  |  |  |  |  |  |  | 
CSCC[C@H](NC(=O)CN1CCN(CC(=O)O)CCN(CC(=O)O)CCN(CC(=O)O)CC1)C(=O)N[C@H](C(=O)N[C@@H](CCCCNC(=O)CCCC(=O)N[C@H](Cc1ccccc1)C(=O)N[C@H]1CSSC[C@@H](C(=O)N[C@H](C(=O)O)[C@@H](C)O)NC(=O)[C@H]([C@@H](C)O)NC(=O)[C@H](CCCCN)NC(=O)[C@@H](Cc2c[nH]c3ccccc23)NC(=O)[C@H](Cc2ccc(O)cc2)NC1=O)C(=O)O)C(C)C [DOTA-MVK(ε)-TATE] |  | 4 |  |  |  |  |  |  |  |  | 
CSCC[C@H](NC(=O)CN1CCN(CC(=O)O)CCN(CC(=O)O)CCN(CC(=O)O)CC1)C(=O)N[C@H](C(=O)N[C@@H](CCCCN)C(=O)N[C@H](Cc1ccccc1)C(=O)N[C@H]1CSSC[C@@H](C(=O)N[C@H](C(=O)O)[C@@H](C)O)NC(=O)[C@H]([C@@H](C)O)NC(=O)[C@H](CCCCN)NC(=O)[C@@H](Cc2c[nH]c3ccccc23)NC(=O)[C@H](Cc2ccc(O)cc2)NC1=O)C(C)C [DOTA-MVK-TATE] ({DOTA}-MVK[dF]CY[dW]KTCT-OH; disulfide 5-10) |  | 76 |  |  |  |  |  |  |  |  | 
C[C@@H](O)[C@H](NC(=O)[C@@H]1CSSC[C@H](NC(=O)[C@@H](Cc2ccccc2)NC(=O)CN2CCN(CC(=O)O)CCN(CC(=O)O)CCN(CC(=O)O)CC2)C(=O)N[C@@H](Cc2ccc(O)cc2)C(=O)N[C@H](Cc2c[nH]c3ccccc23)C(=O)N[C@@H](CCCCN)C(=O)N[C@@H]([C@@H](C)O)C(=O)N1)C(=O)O [DOTA-TATE, reference compound] |  | 6.1 |  |  |  |  |  |  |  |  | 
C[C@@H](O)[C@H](NC(=O)[C@@H]1CSSC[C@H](NC(=O)[C@@H](Cc2ccccc2)NC(=O)CCCC(=O)Nc2cc(COC(=O)N(C)CCNC(=O)CN3CCN(CC(=O)O)CCN(CC(=O)O)CCN(CC(=O)O)CC3)ccc2O[C@@H]2O[C@H](CO)[C@H](O)[C@H](O)[C@H]2O)C(=O)N[C@@H](Cc2ccc(O)cc2)C(=O)N[C@H](Cc2c[nH]c3ccccc23)C(=O)N[C@@H](CCCCN)C(=O)N[C@@H]([C@@H](C)O)C(=O)N1)C(=O)O [DOTA-β-Gal-TATE] |  |  |  |  |  |  |  |  |  |  | tissue uptake at 2 h (in vivo, normal athymic nude mice, i.v. 1 μg, ex vivo, mean (± SD), n = 2–4, read-out: Kidney uptake): 4.1 %ID/g
C[C@H](CCC(=O)NCC(=O)N[C@H](Cc1ccccc1)C(=O)N[C@H]1CSSC[C@@H](C(=O)N[C@H](C(=O)O)[C@@H](C)O)NC(=O)[C@H]([C@@H](C)O)NC(=O)[C@H](CCCCN)NC(=O)[C@@H](Cc2c[nH]c3ccccc23)NC(=O)[C@H](Cc2ccc(O)cc2)NC1=O)[C@H]1CC[C@H]2[C@@H]3[C@H](O)C[C@@H]4C[C@@H](NC(=O)CNC(=O)CN5CCN(CC(=O)O)CCN(CC(=O)O)CCN(CC(=O)O)CC5)CC[C@]4(C)[C@H]3C[C@H](O)[C@]12C [^111In-DOTA-Chol-TATE, metal not drawn] (X1-G[dF]CY[dW]KTCT-OH; disulfide 3-8) |  |  | 0.36 | 0.55 | 0.83 | 1.32 | 1.86 | 0.15 | 0.48 | 159 | 
C[C@@H](O)[C@H](NC(=O)[C@@H]1CSSC[C@H](NC(=O)[C@@H](Cc2ccccc2)NC(=O)CNC(=O)[C@H](CC(=O)O)NC(=O)[C@H](CC(=O)O)NC(=O)[C@H](CC(=O)O)NC(=O)CNC(=O)CN2CCN(CC(=O)O)CCN(CC(=O)O)CCN(CC(=O)O)CC2)C(=O)N[C@@H](Cc2ccc(O)cc2)C(=O)N[C@H](Cc2c[nH]c3ccccc23)C(=O)N[C@@H](CCCCN)C(=O)N[C@@H]([C@@H](C)O)C(=O)N1)C(=O)O [^111In-DOTA-GDDDG-TATE, metal not drawn] ({DOTA}-GDDDG[dF]CY[dW]KTCT-OH; disulfide 7-12) | 0.05 |  | 0.07 | 0.04 | 0.11 | 0.07 | 0.25 | 0.02 | 0.05 | 222 | Kidney uptake (normal athymic nude mice, i.v. 1 μg, ex vivo, mean (± SD), n = 2–4): 13.45 %IA/g
C[C@@H](O)[C@H](NC(=O)[C@@H]1CSSC[C@H](NC(=O)[C@@H](Cc2ccccc2)NC(=O)[C@@H](Cc2ccc(O)cc2)NC(=O)CNC(=O)CN2CCN(CC(=O)O)CCN(CC(=O)O)CCN(CC(=O)O)CC2)C(=O)N[C@@H](Cc2ccc(O)cc2)C(=O)N[C@H](Cc2c[nH]c3ccccc23)C(=O)N[C@@H](CCCCN)C(=O)N[C@@H]([C@@H](C)O)C(=O)N1)C(=O)O [^111In-DOTA-GY*-TATE, metal not drawn] ({DOTA}-G[dY][dF]CY[dW]KTCT-OH; disulfide 4-9) | 0.06 |  | 0.1 | 0.06 | 0.63 | 0.17 | 1.17 | 0.02 | 0.16 | 865 | 
